Laboratory results as given in US8778303B2, “99mTc-labeled 19 amino acid containing peptide for use as phosphatidylethanolamine binding molecular probe and radiopharmaceutical” (The Medical College of Wisconsin, Inc., priority 2008, dated 2014).
Entries after “also recorded” stand apart in the source; their conditions may differ.

Experiments:
[1] = test system: radiation-induced cell death; experiment: Imaging of radiation-induced cell death after whole-body irradiation; format: in vivo, rat; details: rats, 15 Gy whole-body ionizing irradiation
Source text: In an experimental example, 99mTc-Duramycin imaging was used to detect the distribution of radiation-prone tissues after exposure to high-dose ionizing irradiation. […] Control rats were not exposed to ionizing radiation. […] The most radiation-susceptible tissues include the thymus (arrow) and bone marrows (arrow heads and bottom insets).

[2] = Biodistribution studies in healthy rats; format: in vivo, rat
Experimental: Biodistribution studies. […] Dynamic whole-body biodistribution profile was acquired using an in-house gamma camera (GE XRT). The anesthetized animal was continuously imaged at an energy window of 140±15 keV, field of view 22.5×22.5 cm, matrix 128×128, at 1 min per image for up to 60 min post-injection.
For quantitative biodistribution, at each designated time point after intravenous injection of radiolabeled Duramycin, including 0, 1, 5, 15, 30, and 60 min, a group of 4 rats were sacrificed. Various tissues were dissected, rinsed in saline, weighed, and the level of radioactivity was determined using direct gamma counting (140±15 keV).

[3] = test system: apoptotic Jurkat lymphocytes; experiment: In vitro binding tests, apoptotic vs viable cells; details: for binding to apoptotic cells: apoptotic Jurkat lymphocytes
Experimental: In vitro binding tests. The PtdE-binding activity of ^99mTc-HYNIC-Duramycin was examined using binding assays in vitro. A good source of exposed PtdE was apoptotic Jurkat lymphocytes incubated with 5 μM final concentration of camptothecin at 37° C. in a humidified atmosphere with 5% CO2. Untreated control or treated cells were harvested by centrifugation at 800 g for 5 min and re-suspended at 2×10^6 per ml. Radiolabeled Duramycin or Duramycin^1 (inactivated Duramycin) was added to each ml of cells at a final concentration of 100 nM, and the binding was allowed to proceed for 5 min at room temperature. The mixture was then loaded onto a layer of Histopaque. After centrifugation at 800 g for 5 min, cell pellet was collected at the bottom of the tube below the Histopaque layer, whereas the media that contained the non-bound radioactivity will remain above Histopaque. The aqueous supernatant was removed by gentle aspiration. The tip of the tube that contains the pellet was cut off using a hot scalpel. Bound radioactivity was determined by direct gamma counting at an energy window of 140±15 keV.

For `CC(C)=NNc1ccc(C(=O)NCCCC[C@@H]2NC(=O)[C@@H](N)CS[C@@H](C)[C@H]3NC(=O)[C@H](CC(N)=O)NC(=O)CNC(=O)[C@H]([C@@H](O)C(=O)O)NC(=O)[C@@H]4CSC[C@@H](NC(=O)[C@H](CCC(N)=O)NC2=O)C(=O)N[C@H]2CS[C@@H](C)[C@@H](NC(=O)[C@H](Cc5ccccc5)NC(=O)[C@@H]5CCCN5C(=O)CNC(=O)[C@H](Cc5ccccc5)NC(=O)[C@H](CNCCCC[C@@H](C(=O)O)NC3=O)NC2=O)C(=O)N[C@@H](Cc2ccccc2)C(=O)N[C@@H](C(C)C)C(=O)N4)cn1` [^99mTc-HYNIC-Duramycin, metal not drawn], the “detection of radiation-susceptible tissues” value [1] was “Tissues susceptible to radiation-induced cell death were detected”, the tissue uptake at 1 h ([2]; Sprague Dawley, rat, 2.3 nmole, total radioactivity, Bone, healthy rats, intravenous, 60 min post-injection (n=4)) was 0.04 ± 0.01 %ID/g and the tissue uptake at 1 h ([2]; Sprague Dawley, rat, 2.3 nmole, total radioactivity, Brain, healthy rats, intravenous, 60 min post-injection (n=4)) was 0.01 ± 0.01 %ID/g. The tissue uptake at 1 h ([2]; Sprague Dawley, rat, 2.3 nmole, total radioactivity, Colon, healthy rats, intravenous, 60 min post-injection (n=4)) was 0.11 ± 0.01 %ID/g, the tissue uptake at 1 h ([2]; Sprague Dawley, rat, 2.3 nmole, total radioactivity, Fat, healthy rats, intravenous, 60 min post-injection (n=4)) was 0.06 ± 0.06 %ID/g and the tissue uptake at 1 h ([2]; Sprague Dawley, rat, 2.3 nmole, total radioactivity, Heart, healthy rats, intravenous, 60 min post-injection (n=4)) was 0.21 ± 0.16 %ID/g. It also gave a tissue uptake at 1 h ([2]; Sprague Dawley, rat, 2.3 nmole, total radioactivity, Kidney, healthy rats, intravenous, 60 min post-injection (n=4)) of 2.32 ± 0.48 %ID/g, a tissue uptake at 1 h ([2]; Sprague Dawley, rat, 2.3 nmole, total radioactivity, Liver, healthy rats, intravenous, 60 min post-injection (n=4)) of 0.28 ± 0.01 %ID/g and a tissue uptake at 1 h ([2]; Sprague Dawley, rat, 2.3 nmole, total radioactivity, Lung, healthy rats, intravenous, 60 min post-injection (n=4)) of 0.12 ± 0.05 %ID/g. It also gave a tissue uptake at 1 h ([2]; Sprague Dawley, rat, 2.3 nmole, total radioactivity, Muscle, healthy rats, intravenous, 60 min post-injection (n=4)) of 0.03 ± 0.01 %ID/g, a tissue uptake at 1 h ([2]; Sprague Dawley, rat, 2.3 nmole, total radioactivity, Pancreas, healthy rats, intravenous, 60 min post-injection (n=4)) of 0.05 ± 0.01 %ID/g and a tissue uptake at 1 h ([2]; Sprague Dawley, rat, 2.3 nmole, total radioactivity, Skin, healthy rats, intravenous, 60 min post-injection (n=4)) of 0.01 ± 0.01 %ID/g. The tissue uptake at 1 h ([2]; Sprague Dawley, rat, 2.3 nmole, total radioactivity, Small intestine, healthy rats, intravenous, 60 min post-injection (n=4)) was 0.37 ± 0.07 %ID/g, the tissue uptake at 1 h ([2]; Sprague Dawley, rat, 2.3 nmole, total radioactivity, Spleen, healthy rats, intravenous, 60 min post-injection (n=4)) was 0.1 ± 0.02 %ID/g and the tissue uptake at 1 h ([2]; Sprague Dawley, rat, 2.3 nmole, total radioactivity, Stomach, healthy rats, intravenous, 60 min post-injection (n=4)) was 0.11 ± 0.01 %ID/g. The tissue uptake at 1 h ([2]; Sprague Dawley, rat, 2.3 nmole, total radioactivity, Thymus, healthy rats, intravenous, 60 min post-injection (n=4)) was 0.06 ± 0.02 %ID/g, the tissue uptake at 1 h ([2]; Sprague Dawley, rat, 2.3 nmole, total radioactivity, Thyroid, healthy rats, intravenous, 60 min post-injection (n=4)) was 0.08 ± 0.03 %ID/g and the excreta dose per gram or mL at 1 h ([2]; Sprague Dawley, rat, 2.3 nmole, total radioactivity, Urine, healthy rats, intravenous, 60 min post-injection (n=4), read-out: Uptake) was 22.1 ± 13.2 %ID/g. For the same compound, the tissue uptake at 1 h ([2]; Sprague Dawley, rat, whole blood, 2.3 nmole, total radioactivity, Blood, healthy rats, intravenous, 60 min post-injection (n=4)) was 0.33 ± 0.11 %ID/g, the “signs of toxicity or other adverse effects” value ([2]; at the current dosage tested, rats) was “no signs of toxicity or other adverse effects were observed” and the brain uptake ([2]; healthy rats) was “low”. The route of clearance ([2]; healthy rats) was “renal excretion is the predominant route of clearance”, the “uptake in the hepatic and gastrointestinal regions” value ([2]; healthy rats) was “low uptake; also recorded: very low” and the “binding to apoptotic cells” value [3] was “dramatically enhanced”. The “binding to apoptotic cells” value ([3]; listed as 99mTc-HYNIC-Duramycin^1) was “only at background levels” and the “radioactivity uptake in viable cells” value ([3]; viable Jurkat lymphocytes as control) was “remained near background”.
